The data set in a line: soluble on expression in E. coli; label from the status in PepcDB or PDB records.
As for “MSVSNTQFNPFGNHETNLKELKLQLEQVTSKSVKQIEDVKGLTVTLERLTEIAKNIPETAIQSLISEIVASFPKCVSVLGEKKPEDLRTASFISLLRRLNQFIQTIADRVTKPFDSDVLKEWAPIFVSLLTGKHSALKENGALLWKKTFGTVKNNLICPEDLRGILDSMPKRYAISVPQSTSSKTDGYFSDDEAMDGLPTSSAAGAGNNFKFPKIKTEVIESQSSFQFSQQPVADEVAEKLLKEQKLKAEETQSPKTSSTETSRRRTSRMALIDEDSCDFVAILTSPATRKNRLTDRQKEKLEEVSGPRTTINYMDEESQNGFVKTEQFKKALTAMNFEVEDESVSAPTSKNSENPEILPIDEIPTVHVESAKSDKTPEPVKKTNKRRRLFHDQPVSAFATESSRKPEIANNDLGEILEKLPEHASTKSPEQKRGRKDSAISCETSDDISDSMKSNDSRTIITQQEHAVEQKSRKKPGRPKNSRNRSETTRKSGRLSAIQNNACVTSESSMSNETGDVEKTDDKKESVQNIPEQEAAEKKEVDTTISDKRLSDTEEAIEENIVKSPPKTPRTPSILRVGKRMSTSSSPMTERKRNRVHFGEESLPVDVVSSPLTPRRRPLAEAAKNPFVEATVAASNSNLSDIQSSTNDSSFYPTLADCRDKIDRILPNLVTLCMKTVLDSAKRSLSAVGVKTVGDFASLSKSDIEKFTWIKGRVVGARNVLMQYEKTRNAERREEIVDGSEEKPMDVADAIPPEIEAVSPSSKDSQSVPMETKDNSPPANEVIAQELPKASPISNTPSVESTQPALNVQKTPEASQSPASPISSNTGSSTFTVDPTPVQKDLSVVLSRKNLAPIFCGGLKNFKKEQLCPQKQCEKAKDAEKSFVEDGRVLHRICVSLSNAHTQNHWPSENSSKLLSNINKASILFKNLVQTRGAGDWDDTDLENDDLSTAESDVATDVDVLVAVYKRFSRHHTSPMANNLPWRSVMECVNEAACLLESIFLTRAPNKGSM”, the “soluble on expression in E. coli” value is “not soluble”.

In the case of “MSLNDTVTVRISFAVNIATRVIAEVPLFSLTKPSHQELLQKIAEQSRSPFNYPDVGASLCEFPSGYEHHHHRVRLGRGQEVFDRAKEALGNWRQFDVGWVEAIPSDTSITVGNTIAIRVRIFGVWAMAFDRIVDVYGEQDGECRRFGFSVGTLTEHPEQGEERFSIEIDREDHVDYEVAAFFRPNTLAAKMAWPVLHRRFNRFRNQSAEAMQLACKLGPSSEGHHHHHH”, the “soluble on expression in E. coli” value is “not soluble”.

Take “MGSDKIHHHHHHMLQFIPVFDGNTIAVRASGKLTLEDFQQFFPQLETQIKRLGKISLLFEFDNFSGWDLDAAIDDIKFGMKHLSDFERIAMVGDKSWEHWMALIAKPFLISSEVRYFNRENLQQAWDWLREKQEFEKAVEQLQPYQNIVVAVDFSLYSKHACKRAIELANYYQASLTLLNVVPEVLAYTLYGDPVGYNVVDLDIIKDQNKKNIDAAQFQMKAFVNDLDTNFPIETKVICGEINYGVVSFLEAQHIDLAIFGAKKKKGINKLLGSVPHYVQNHSRCEILIVPVQGPVF”: the “soluble on expression in E. coli” value was “not soluble”.

On to “MSDRATTTASLTFESLYGTHHGWLKSWLTRKLQSAFDADDIAQDTFLRVMVSETLSTIRDPRSFLCTIAKRVMVDLFRRNALEKAYLEMLALMPEGGAPSPEERESQLETLQLLDSMLDGLNGKTREAFLLSQLDGLTYSEIAHKLGVSISSVKKYVAKAVEHCLLFRLEYGL”, for which the “soluble on expression in E. coli” value was “soluble”.

Regarding “MRRLGKQEIEDIAVGAALLGTGGGGDPYIGKLMALQAIEEYGPIQLLSVDEIDDEAVVVPSGMMGAPTVMIEKVPNGEEAIAAFQTLEQYLGKKIFATMPIEAGGINSLLPLALAARLGLPVVDVDGMGRAFPELQMVTFYLDGISATPLVIADEKGNHSVLNTVNNMWAERIARAATIQMGGSVMMAIYPMVGKQLKESGIHHILKLEEDIGRIIREAKGTNANPIAEVLSLVGGFELFKGKVVDINRKTESGFARGTAHIQGFDLYHDQTLEIKFQNEHLLAKTPDQLLCVTPDLIAILDSETGLPITTEGLKYGARCVVIGIPCHPKWRTAKGIETCGPAYFGYDVDYVPVENLVKEGAQTKLEHHHHHH”, the “soluble on expression in E. coli” value is listed as “soluble”.

“MSLGQGIPANPADGAGEWGDYRDCDSPWKAVEDAVRAAARQHPDAAYVYYTGDIIDHGVWETTVAGNIVSMTRTYQLFRDVFGSKPVYNVLGNHENNPTNVFAPSYITQSEFSAKWLYDFSADQWSTWLPTASQQTIRQGGFYTVLVRPGFRIIGMNNNDAYTFNWWILYDPAYLQAQLQWVHDTLLQAEAAGEKVHILAHIPIGAGTSYRTWARQYRRILDRFWDVITAHFHGHTHADEFNVFYSLANPQHAISAGFNGGGTVPFSNYNPNYVVYYVNPQTYDVTDFESWYFSLTEANQNPNREGHHHHHH”: the “soluble on expression in E. coli” value is recorded as “not soluble”.

Take “ENEIERPEDMRVRTLANKSKMKVSIVQQIDRKVALDDIAVSHGLDFPELLSEVETIVYSGTRINIDYFINEVMDEDHLEDIFEYFKESTTDSLEEAMQELGKDYSEEEIRLVRIKFLSEMAN”: the “soluble on expression in E. coli” value was “soluble”.

“MGHQVAIYDSRPFVGGKVGSWIDADGNHIEMGLHVFFFNYANLFALMRKVGAFENLLPKAHTHTFINKGGEVGELDFRFPIGAPFNGLKAFFTTSQLTWLDKLQSALALGTSPLVRGILDYEGAMKIIRALDRISFADWFRSHGGSEGSLKRMWNPIAYALGFIDTENISARCMLTVFQMFAAKTEASKLNLLAGSPAEYLHKPILDYIQARGATLHLQRRVREIEYTETNGQTVVTGLQIADGDAVERVEADVYLAACDVPGIQRLLPEAWRKWSEFDNIYKLDAVPVATVQLRFDGWVTELVDREKRHQLDHATGLDNLLYTADADFSCFTDLALSSPKDYYRKGQGSLLQCVLTPGDPFIAMKNEDIAQHVLKQVHELFPSSRDLNMTWSNVVKLAQSLYREAPGMDPFRPDQKTPIANFFLAGSYTQQDYIDSMEGATISGRRAAKAMLEAQAIAALEHHHHHH”: the “soluble on expression in E. coli” value is “not soluble”.

With “SEATKERVGLLDTILPPALADAGLEDCALPPESIQEAFRKAANAVKSRAASIFDHEEEDGCLADPIPETADKIIVGGDNERDTGPCLAGKGIEKLAESKQAGDLVVAGEGEEGKSCVDGLKDLDVEGIERSSEKKDQSDEDEEEEMKPILVEGFV”, the “soluble on expression in E. coli” value was “soluble”.

Take “MAHHHHHHMSNCPHPRGDCGGRSVAAEGTLVPSHISCGDFTFQGGQTPRKELAGVHTSALMQPGLSSAVPSNSILSFSHDVVAAGNGMPPSVSPASSEKKKVLGTSGGGGSAEGTLNSANSSDQGPTGTPVKRNTKPLVPQQHVTKCQLTPNDAAASGLLITTPETPCNEKNPVYAAVGAARQSRERMISAENFTVIQPGGKLRTHLPPQRESGSDKKGKK”: the “soluble on expression in E. coli” value is recorded as “soluble”.

Regarding “MKIALSFLFLTSTFSNAGKIGRLQSVAVSGQLNCLGKPAVGVRIDLMESDNNGEETGIIDDNDFMGYTYTDSAGFFNMSGSEVEISGIEPYVNIFHKCNDGLSPCQRQLRVDIPKSATASGPAPNETFSIGTLELSSRKVIGERRSCAYRNLTQTS”, the “soluble on expression in E. coli” value is on record as “not soluble”.

As to “MAHHHHHHMGGQSSVTTTPEQIPVNGKSLDWGPPPDDIPEEERDNEELVLQTWAFCKAKPSPAQNYRSDVEERKRRQSMLWRKRASFIELDCGEDSFFVSNTYKVIGVADGVGGWRDEGVDASHFANSLMENAKHFSETHRKELNPEVILQSAFDKVLHDKVVKAGSSTACVVALQKDSSGEHYLDVANVGDSGVLVVRNRQVQHRVHEKVHGFNAPFQLAVLPPHLQGRAFSDRVSDATREKIPVQRGDVVITGTDGLFDNRFNISLAADAGWIGHVQGSALERVPLVGLLLGPIFANDKVAYVDPQRVAQRIVQDAYKTSLDESAHTPWASMLRKFGVEDAKGGKVDDITLVLSRVTTREELNATSTW”, the “soluble on expression in E. coli” value is “not soluble”.

Take “EDKTITTLYVGGLGDTITETDLRNHFYQFGEIRTITVVQRQQCAFIQFATRQAAEVAAEKSFNKLIVNGRRLNVKWGR”: the “soluble on expression in E. coli” value is reported as “soluble”.

“MSTINQKLSDNFREAWQKQNLEVNLEEVIEKWELTKYVKDNFICPEVNISTLPSYSFVLKFMFKLKKPYISLDENDFYIIDNPLRKDKVLNLPFVAPSSWKGSLRNSLWQLNYDYENDKIRRIFGNERSPNSEDIVLRMGRLYFFPTFFSKKSLEIINPHNRESRVGTVPILMESVPQDTTGYFTLIYVPFDLIGCEENEIKKQVACDIQLISKGLKSMFTYYGFGAKTSSGYGTSYEDITDGTITLRVKGIEVSLKDIDEVKPPAEGYSKYLNEDGSVKEEFKGSGKYGLLSDKEYYKIKNQLEGSRNEYRDFRQWYGLNGEKWQKHLNSFKYPKPEWPTWNFGNFFQLIEVSKNIATSLELSGAHNECMAGDPLEHHHHHH”: the “soluble on expression in E. coli” value is reported as “not soluble”.

Turning to “MSLTLPDTDQLVAGIQSWIQCESPSNSPAGVTAMAHLAAEYARAVGLAVEIRPLNAEVGPLVHATNRAAGDTRPGVLILGHIDTVHPIGTLQDNPCRIDGDRLYGPGSYDMKAGIYLALSALRGLPSPDATALPVDFLLVPDEETGSHASREHIEHYAARAKYALVCEPARPNGGKCVTARKGTGMLRLNVKGRPAHAGMQHEKGRSAIREMAHQVLELESMTDYERGITVSVGTIAGGTVTNTVPAQCRCVVDFRVPDMGATEDVLRRMRNLCSVGPDMELDIDVELNRPPMVKTEAASALLQLAQDFAAQAGFALEDAPMTGGGSDANFTSAMGVPTLDGLGADGDGAHTLNEYILVSTLAARMRFWELLLKELHEGHHHHHH”, the “soluble on expression in E. coli” value was “soluble”.

As to “MSLKDQVQLVKRRDSIRYEIVSIQDRLSFEKGFFAVIRACQLLSQKNDGIILVGVAGPSGAGKTVFTEKILNFLPSVAVISMDNYNDSSRIVDGNFDDPRLTDYDTLLKNLEDLKEGKQVEVPIYDFKSSSRVGYRTLDVPPSRIVIIEGIYALSEKLRPMLDLRVSVTGGVHFDLVKRVLRDIQRAGQQPEEIIHQISETVYPMYKAFIEPDLQTAQIKIINKFNPFTGFQSPTYILKSRKEGHHHHHH”, the “soluble on expression in E. coli” value was “not soluble”.

“MQNVVGIDFQKSGKMEYYSPKGFDLDVGDWVVVESKRGLEMGRVKYAPLDVADQDVTLPLKEIVRLATEDDLLQYEKNEYDADEAMALCKETIQQHELEMRLVNCEYTLDKSKVIFNFTSDERVDFRKLVKVLAQKLKTRIELRQIGVRDEAKLLGGIGPCGRSLCCSTFLGDFEPVSIKMAKDQNLSLNPTKISGACGRLMCCLKYENDYYEEARAQLPDVGDAIETPEGNGKVIGLNILDISMQVKVEGLEQPLEYKMEELETLNLEHHHHHH”: the “soluble on expression in E. coli” value was “not soluble”.

As to “MAHHHHHHMTTYTLVLLRHGESTWNKENKFTGWTDVPLSEKGEEEAIAAGKYLKEKNFKFDVVYTSVLKRAICTAWNVLKTADLLHVPVVKTWRLNERHCGSLQGLNKSETAKKYGEEQVKIWRRSYDIPPPKLDKEDNRWPGHNVVYKNVPKDALPFTECLKDTVERVLPFWFDHIAPDILANKKVMVAAHGNSLRGLVKHLDNLSEADVLELNIPTGVPLVYELDENLKPIKHYYLLDSEELKKKMDEVANQGKAK”, the “soluble on expression in E. coli” value is recorded as “soluble”.

For the sequence “MRGSHHHHHHGSIQKTTIAADSSSKPRGINYDTGIPFNVLIVDDSVFTVKQLTQIFTSEGFNIIDTAADGEEAVIKYKNHYPNIDIVTLDITMPKMDGITCLSNIMEFDKNARVIMISALGKEQLVKDCLIKGAKTFIVKPLDRAKVLQRVMSVFVK”, the “soluble on expression in E. coli” value is reported as “soluble”.

With “MGSDKIHHHHHHMINIIICEGKKSERVILNDYINTFFYNYNFEYNIKEFENGGDLLKKYPNNVDIIFMDIDLNDENGFNVSKEIKKFDESVRIIFVSSSNKYIKKGYEIGVYRYLEKPLKYSLFKEAISSYLKECYKNEAILSIKCKCKIYFIKVDDILYLEVLKNDLTIHTEKGIYTFKSSMKEIESNLEEHNFFRCHKSYLINLMKVNMLDIENNIVFINQNSIIVSRYKIKLLREKLNSCLVDVII”, the “soluble on expression in E. coli” value was “not soluble”.
